Numbering of substitutions follows the chain as printed.

To fix the notation:
B1: DART-A-M21 (bispecific antibody)
chain 1: DFVMTQSPDSLAVSLGERVTMSCKSSQSLLNSGNQKNYLTWYQQKPGQPPKLLIYWASTRESGVPDRFSGSGSGTDFTLTISSLQAEDVAVYYCQNDYSYPYTFGQGTKLEIKGGGSGGGGEVQLVESGGGLVQPGGSLRLSCAASGFTFSTYAMNWVRQAPGKGLEWVGRIRSKYNNYATYYADSVKDRFTISRDDSKNSLYLQMNSLKTEDTAVYYCVRHKNFGNSYVSFFAYWGQGTLVTVSSGGCGGGKVAALKEKVAALKEKVAALKEKVAALKE
chain 2: QAVVTQEPSLTVSPGGTVTLTCRSSTGAVTTSNYANWVQQKPGQAPRGLIGGTNKRAPWTPARFSGSLLGGKAALTITGAQAEDEADYYCALWYSNLWVFGGGTKLTVLGGGGSGGGGEVQLVQSGAELKKPGASVKVSCKASGYTFTDYYMKWVRQAPGQGLEWIGDIIPSNGATFYNQKFKGRVTITVDKSTSTAYMELSSLRSEDTAVYYCARSHLLRASWFAYWGQGTLVTVSSGGCGGGEVAALEKEVAALEKEVAALEKEVAALEK
B2: DART-A-M20 (bispecific antibody)
chain 1: B1 chain 1 with Y229G, F232W
chain 2: B1 chain 2
B3: DART-A-M10 (bispecific antibody)
chain 1: B1 chain 1 with K223G, F225I, F232W
chain 2: B1 chain 2
B4: DART-A-M5 (bispecific antibody)
chain 1: B1 chain 1 with K223G, Y229G, F232W
chain 2: B1 chain 2
B5: DART-A-M14 (bispecific antibody)
chain 1: B1 chain 1 with T152D, K223G, F232W
chain 2: B1 chain 2
B6: DART-A-M7 (bispecific antibody)
chain 1: B1 chain 1 with K223D, F232W
chain 2: B1 chain 2
B7: DART-A-M19 (bispecific antibody)
chain 1: B1 chain 1 with F225I, F232W
chain 2: B1 chain 2
B8: DART-A-M16 (bispecific antibody)
chain 1: B1 chain 1 with Y153D, K223G, F232W
chain 2: B1 chain 2

One experiment deals with CD3 on T-cells (UniProt P07766). Description: cell-based or functional assay.
Sequence of CD3 on T-cells (P07766 23-207): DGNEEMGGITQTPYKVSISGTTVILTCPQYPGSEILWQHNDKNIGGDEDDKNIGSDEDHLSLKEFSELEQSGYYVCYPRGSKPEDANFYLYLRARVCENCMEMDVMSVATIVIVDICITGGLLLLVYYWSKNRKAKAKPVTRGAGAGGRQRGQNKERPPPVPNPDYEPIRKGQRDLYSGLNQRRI
As for B1, the EC50 of cytolysis at 18 hours (CTL assay, Pan-T-cells and MOLM-13, E:T = 5:1) was 0.026 ng/mL; the R: ratio of 18 hour EC50 to DART-A-WT (CTL assay, Pan-T-cells and MOLM-13, E:T = 5:1) worked out at 0.3; the R: ratio of 42 hour EC50 to DART-A-WT (CTL assay, Pan-T-cells and MOLM-13, E:T = 5:1) turned out to be 0; the max % CytoTox at 18 hours (CTL assay, Pan-T-cells and MOLM-13, E:T = 5:1) stood at 36.5%. Moreover, the max % CytoTox at 42 hours (CTL assay, Pan-T-cells and MOLM-13, E:T = 5:1) is 29.9%.

As to B2, the EC50 of cytolysis at 18 hours (CTL assay, Pan-T-cells and MOLM-13, E:T = 5:1) was 0.259 ng/mL; the EC50 of cytolysis at 42 hours (CTL assay, Pan-T-cells and MOLM-13, E:T = 5:1) was determined as 0.038 ng/mL; the R: ratio of 18 hour EC50 to DART-A-WT (CTL assay, Pan-T-cells and MOLM-13, E:T = 5:1) stood at 3.3; the R: ratio of 42 hour EC50 to DART-A-WT (CTL assay, Pan-T-cells and MOLM-13, E:T = 5:1) came out at 13.5. The max % CytoTox at 18 hours (CTL assay, Pan-T-cells and MOLM-13, E:T = 5:1) stood at 37.5%; the max % CytoTox at 42 hours (CTL assay, Pan-T-cells and MOLM-13, E:T = 5:1) was 30.9%.

As for B3, the EC50 of cytolysis at 18 hours (CTL assay, Pan-T-cells and MOLM-13, E:T = 5:1) came out at 0.426 ng/mL; the EC50 of cytolysis at 42 hours (CTL assay, Pan-T-cells and MOLM-13, E:T = 5:1) was determined as 0.095 ng/mL; the R: ratio of 18 hour EC50 to DART-A-WT (CTL assay, Pan-T-cells and MOLM-13, E:T = 5:1) was 5.4; the R: ratio of 42 hour EC50 to DART-A-WT (CTL assay, Pan-T-cells and MOLM-13, E:T = 5:1) was 33.7. The same molecule displayed a max % CytoTox at 18 hours (CTL assay, Pan-T-cells and MOLM-13, E:T = 5:1) of 39.3%; a max % CytoTox at 42 hours (CTL assay, Pan-T-cells and MOLM-13, E:T = 5:1) of 29.9%.

For the molecule B4, the EC50 of cytolysis at 18 hours (CTL assay, Pan-T-cells and MOLM-13, E:T = 5:1) was 0.225 ng/mL; the EC50 of cytolysis at 42 hours (CTL assay, Pan-T-cells and MOLM-13, E:T = 5:1) came out at 0.011 ng/mL; the R: ratio of 18 hour EC50 to DART-A-WT (CTL assay, Pan-T-cells and MOLM-13, E:T = 5:1) is 2.9; the R: ratio of 42 hour EC50 to DART-A-WT (CTL assay, Pan-T-cells and MOLM-13, E:T = 5:1) was 3.8. Besides, the max % CytoTox at 18 hours (CTL assay, Pan-T-cells and MOLM-13, E:T = 5:1) stood at 40.8%; the max % CytoTox at 42 hours (CTL assay, Pan-T-cells and MOLM-13, E:T = 5:1) came out at 28.4%.

Turning to B5, the EC50 of cytolysis at 18 hours (CTL assay, Pan-T-cells and MOLM-13, E:T = 5:1) turned out to be 0.492 ng/mL; the EC50 of cytolysis at 42 hours (CTL assay, Pan-T-cells and MOLM-13, E:T = 5:1) worked out at 0.11 ng/mL; the R: ratio of 18 hour EC50 to DART-A-WT (CTL assay, Pan-T-cells and MOLM-13, E:T = 5:1) was found to be 6.2; the R: ratio of 42 hour EC50 to DART-A-WT (CTL assay, Pan-T-cells and MOLM-13, E:T = 5:1) was determined as 39.3. Moreover, the max % CytoTox at 18 hours (CTL assay, Pan-T-cells and MOLM-13, E:T = 5:1) worked out at 44.7%; the max % CytoTox at 42 hours (CTL assay, Pan-T-cells and MOLM-13, E:T = 5:1) is 31.4%.

In the case of B6, the EC50 of cytolysis at 18 hours (CTL assay, Pan-T-cells and MOLM-13, E:T = 5:1) was found to be 0.304 ng/mL; the EC50 of cytolysis at 42 hours (CTL assay, Pan-T-cells and MOLM-13, E:T = 5:1) worked out at 0.03 ng/mL; the R: ratio of 18 hour EC50 to DART-A-WT (CTL assay, Pan-T-cells and MOLM-13, E:T = 5:1) came to 3.8; the R: ratio of 42 hour EC50 to DART-A-WT (CTL assay, Pan-T-cells and MOLM-13, E:T = 5:1) stood at 10.8. This molecule yielded a max % CytoTox at 18 hours (CTL assay, Pan-T-cells and MOLM-13, E:T = 5:1) of 41.4%; a max % CytoTox at 42 hours (CTL assay, Pan-T-cells and MOLM-13, E:T = 5:1) of 32.5%.

For B7, the EC50 of cytolysis at 18 hours (CTL assay, Pan-T-cells and MOLM-13, E:T = 5:1) worked out at 0.68 ng/mL; the EC50 of cytolysis at 42 hours (CTL assay, Pan-T-cells and MOLM-13, E:T = 5:1) was determined as 0.11 ng/mL; the R: ratio of 18 hour EC50 to DART-A-WT (CTL assay, Pan-T-cells and MOLM-13, E:T = 5:1) is 8.6; the R: ratio of 42 hour EC50 to DART-A-WT (CTL assay, Pan-T-cells and MOLM-13, E:T = 5:1) was determined as 39.1. The same molecule returned a max % CytoTox at 18 hours (CTL assay, Pan-T-cells and MOLM-13, E:T = 5:1) of 41%; a max % CytoTox at 42 hours (CTL assay, Pan-T-cells and MOLM-13, E:T = 5:1) of 32.8%.

A further experiment deals with CD3 (as used for the BIACORE kinetics of Table 11) (UniProt P07766). Briefly: SPR (BIACORE). (In general: SPR reads the build-up and loss of mass on a sensor chip optically.)
Sequence of CD3 (as used for the BIACORE kinetics of Table 11) (P07766 23-126): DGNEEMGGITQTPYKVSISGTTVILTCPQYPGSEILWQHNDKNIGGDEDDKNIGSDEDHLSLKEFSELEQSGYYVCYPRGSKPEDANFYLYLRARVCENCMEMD
Take B1: the Kd was determined as 4.18 nM, the R (KD ratio to DART-A-WT) was determined as 0.5, the R (ka ratio to DART-A-WT) was 4.9 and the R (kd ratio to DART-A-WT) is 2.5. The molecule also registered a dissociation rate constant (koff) of 0.0103 s⁻¹ and an on-rate (kon) of 2.45e+06 M⁻¹ s⁻¹.

As for B2, the Kd stood at 18.9 nM, the R (KD ratio to DART-A-WT) amounted to 2.3, the R (ka ratio to DART-A-WT) was 7.7 and the R (kd ratio to DART-A-WT) came out at 18. For the same molecule, the dissociation rate constant (koff) is 0.0732 s⁻¹ and the kon is 3.87e+06 M⁻¹ s⁻¹.

As for B3, the Kd was 43.3 nM, the R (KD ratio to DART-A-WT) was found to be 5.3, the R (ka ratio to DART-A-WT) was determined as 1.4 and the R (kd ratio to DART-A-WT) amounted to 7.6. The koff is 0.031 s⁻¹ and the kon was 717000 M⁻¹ s⁻¹.

Take B4: the Kd was 21.4 nM, the R (KD ratio to DART-A-WT) is 2.6, the R (ka ratio to DART-A-WT) was 2.6 and the R (kd ratio to DART-A-WT) was 6.8. This molecule registered a koff of 0.028 s⁻¹ and a kon of 1.31e+06 M⁻¹ s⁻¹.

On to B5, for which the dissociation constant (Kd) turned out to be 46.6 nM, the R (KD ratio to DART-A-WT) is 5.7, the R (ka ratio to DART-A-WT) came to 0.6 and the R (kd ratio to DART-A-WT) came out at 3.5. The same molecule registered an off-rate constant (koff) of 0.0143 s⁻¹ and a kon of 308000 M⁻¹ s⁻¹.

B6: the equilibrium dissociation constant (Kd) came to 22.5 nM, the R (KD ratio to DART-A-WT) worked out at 2.8, the R (ka ratio to DART-A-WT) is 2 and the R (kd ratio to DART-A-WT) was found to be 5.6. The off-rate constant (koff) is 0.0229 s⁻¹ and the on-rate (kon) was found to be 1.02e+06 M⁻¹ s⁻¹.

Take B8: the equilibrium dissociation constant (Kd) was 301 nM, the R (KD ratio to DART-A-WT) is 37, the R (ka ratio to DART-A-WT) is 0.7 and the R (kd ratio to DART-A-WT) is 25. The molecule also showed a koff of 0.104 s⁻¹ and an on-rate (kon) of 347000 M⁻¹ s⁻¹.

In the case of B7, the Kd is 54.6 nM, the R (KD ratio to DART-A-WT) was determined as 6.7, the R (ka ratio to DART-A-WT) came out at 1.5 and the R (kd ratio to DART-A-WT) worked out at 10. Besides, the koff came to 0.0411 s⁻¹ and the kon came to 753000 M⁻¹ s⁻¹.

By Kd is commonly meant the free concentration of one partner at which half of the binding sites on the other are occupied at equilibrium, for simple one-to-one binding. Broadly, the koff is a measure of how fast the partners let go of each other. Lower therefore signals slow dissociation. What is called kon is a measure of how fast the partners come together.
